Legend:
GST-Smad2 full length = GST-Smad2 full length (UniProt Q15796 Q15796:1-467); assay: EMSA; settings: tags: GST, E. coli; label: 33P
GST-Smad1 full length = GST-Smad1 full length (UniProt Q15797 Q15797:1-465); assay: EMSA; settings: tags: GST, E. coli; label: 33P
Smad2 = Smad2 (Homo sapiens, UniProt Q15796 Q15796:1-467); assay: EMSA; settings: label: 33P
GST-Smad4 full length = GST-Smad4 full length (UniProt Q13485 Q13485:1-552); assay: EMSA; direct and specific; settings: tags: GST, E. coli; label: 33P
Chain of GST-Smad4 full length (Q13485 whole entry, the tested form may be a part, one chain of several): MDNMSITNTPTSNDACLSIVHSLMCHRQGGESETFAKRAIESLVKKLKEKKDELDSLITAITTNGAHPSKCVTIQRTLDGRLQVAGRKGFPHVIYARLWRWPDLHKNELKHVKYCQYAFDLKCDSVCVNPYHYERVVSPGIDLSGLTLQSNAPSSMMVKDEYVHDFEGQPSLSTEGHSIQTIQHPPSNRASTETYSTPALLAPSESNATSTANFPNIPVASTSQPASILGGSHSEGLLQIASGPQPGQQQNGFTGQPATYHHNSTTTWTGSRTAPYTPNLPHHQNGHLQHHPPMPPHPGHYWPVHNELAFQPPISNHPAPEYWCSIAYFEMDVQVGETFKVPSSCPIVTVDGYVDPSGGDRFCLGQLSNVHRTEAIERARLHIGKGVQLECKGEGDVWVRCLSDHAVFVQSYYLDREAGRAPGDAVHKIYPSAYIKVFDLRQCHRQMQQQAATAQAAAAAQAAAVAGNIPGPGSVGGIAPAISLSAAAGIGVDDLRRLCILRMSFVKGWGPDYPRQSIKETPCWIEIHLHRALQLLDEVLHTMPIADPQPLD

Smad3 = Smad3 (Homo sapiens, UniProt P84022 P84022:1-425); assay: EMSA; not fused to GST; settings: label: 33P
Chain of Smad3 (P84022 whole entry, the tested form may be a part, one chain of several): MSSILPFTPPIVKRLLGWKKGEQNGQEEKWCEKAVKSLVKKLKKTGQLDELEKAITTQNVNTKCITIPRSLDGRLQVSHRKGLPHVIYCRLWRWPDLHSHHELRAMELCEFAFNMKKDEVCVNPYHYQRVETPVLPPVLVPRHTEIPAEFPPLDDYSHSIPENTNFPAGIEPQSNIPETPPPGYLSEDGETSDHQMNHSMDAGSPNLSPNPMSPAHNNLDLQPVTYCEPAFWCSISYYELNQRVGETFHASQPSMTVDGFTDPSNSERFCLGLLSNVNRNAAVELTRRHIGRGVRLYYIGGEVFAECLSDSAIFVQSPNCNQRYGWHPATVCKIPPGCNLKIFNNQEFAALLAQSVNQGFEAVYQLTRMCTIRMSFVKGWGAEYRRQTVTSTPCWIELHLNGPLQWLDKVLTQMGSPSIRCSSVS

Chain of GST-Smad1 full length (Q15797 whole entry, one chain of several): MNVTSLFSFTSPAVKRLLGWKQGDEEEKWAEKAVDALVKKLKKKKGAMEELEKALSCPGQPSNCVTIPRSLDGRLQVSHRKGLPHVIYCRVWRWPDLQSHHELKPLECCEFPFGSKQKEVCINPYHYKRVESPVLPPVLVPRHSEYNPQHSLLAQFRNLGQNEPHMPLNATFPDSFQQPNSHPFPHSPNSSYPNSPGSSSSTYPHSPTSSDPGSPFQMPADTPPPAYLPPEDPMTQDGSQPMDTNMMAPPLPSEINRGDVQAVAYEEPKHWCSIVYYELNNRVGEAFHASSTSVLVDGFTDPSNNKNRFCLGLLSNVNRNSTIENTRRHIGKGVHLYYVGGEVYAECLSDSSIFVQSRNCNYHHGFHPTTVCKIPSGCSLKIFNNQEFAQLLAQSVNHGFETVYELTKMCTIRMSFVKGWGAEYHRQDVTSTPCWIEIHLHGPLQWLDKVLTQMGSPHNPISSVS
Chain of GST-Smad2 full length (Q15796 whole entry, one chain of several): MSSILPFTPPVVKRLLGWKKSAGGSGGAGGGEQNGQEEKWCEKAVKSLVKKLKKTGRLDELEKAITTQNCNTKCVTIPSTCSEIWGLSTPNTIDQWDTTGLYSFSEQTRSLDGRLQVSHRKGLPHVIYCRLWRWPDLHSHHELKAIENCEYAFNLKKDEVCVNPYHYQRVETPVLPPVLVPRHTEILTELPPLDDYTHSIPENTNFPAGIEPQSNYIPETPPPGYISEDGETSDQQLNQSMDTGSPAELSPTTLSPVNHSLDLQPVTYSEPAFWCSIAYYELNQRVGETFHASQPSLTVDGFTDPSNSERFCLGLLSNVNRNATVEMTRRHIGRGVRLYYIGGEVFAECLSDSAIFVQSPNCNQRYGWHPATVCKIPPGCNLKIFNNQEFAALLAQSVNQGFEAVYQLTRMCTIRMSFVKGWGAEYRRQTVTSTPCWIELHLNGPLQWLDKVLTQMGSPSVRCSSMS
Chain of Smad2 (Q15796 whole entry, one chain of several): as above

B1: CAGA probe (dsDNA)
DNA 1: TCGAGAGCCAGACAAGGAGCCAGACAAGGAGCCAGACAC
DNA 2: GTGTCTGGCTCCTTGTCTGGCTCCTTGTCTGGCTCTCGA
GST-Smad2 full length
  binding result: no binding
GST-Smad1 full length
  binding result: no binding
Smad2
  binding result: no binding
GST-Smad4 full length
  binding result: binds
Smad3
  binding result: binds

Source: patent US20030207263, “Method of screening therapeutic agents” (published 2003)
